Laboratory results as given in patent publication US20200262877A1, “ION CHANNEL-BINDING PEPTIDES AND METHODS OF USE THEREOF” (priority 2017, published 2020).

Columns and labels:
GABA = assay: Ion channel panel (IonWorks Barracuda): GABA; format: cell-based; conditions: 100% = no change, <100% = inhibition
Procedure, shortened: (§1)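 Transfected HEK293 or CHO cells were exposed for at least 5 min to peptides at 200 nM and 20 μM final, tested in duplicate, in HEPES-buffered physiological saline. Activation was taken as peptide-plus-agonist current over control current ×100, and inhibition as 1 minus that ratio ×100. Each channel's control was its own reference compound.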

TRPA1 = target: T1, TRPA1 (Homo sapiens, UniProt O75762); assay: Ion channel panel (IonWorks Barracuda): TRPA1; format: cell-based; conditions: 100% = no change, <100% = inhibition
T1 construct: host or cells: HEK293 or CHO
Procedure, shortened: as §1

NR2B = target: T2, NR2B (Homo sapiens, UniProt Q13224); assay: Ion channel panel (IonWorks Barracuda): NR2B; format: cell-based; conditions: 100% = no change, <100% = inhibition
T2 construct: host or cells: HEK293 or CHO
Procedure, shortened: as §1

α3β4 = target: T3, α3β4 (Homo sapiens, UniProt P30926+P32297); assay: Ion channel panel (IonWorks Barracuda): α3β4; format: cell-based; conditions: 100% = no change, <100% = inhibition
T3 construct: host or cells: HEK293 or CHO
Procedure, shortened: as §1

α4β2 = target: T4, α4β2 (Homo sapiens, UniProt P17787+P43681); assay: Ion channel panel (IonWorks Barracuda): α4β2; format: cell-based; conditions: 100% = no change, <100% = inhibition
T4 construct: host or cells: HEK293 or CHO
Procedure, shortened: as §1

Nav1.7 = target: T5, Nav1.7 (Homo sapiens, UniProt Q15858); assay: cell-based; format: cell-based; conditions: 100% = no change; for Activity of Nav1.7 with peptide, expressed as a percentage of the reference compound: peptide at 0.2 μM; for Activity of Nav1.7 with peptide (percentage of the reference compound): peptide at 20 μM
T5 construct: host or cells: HEK293 or CHO

5HT3a = target: T6, 5HT3a (Homo sapiens, UniProt P46098); assay: Ion channel panel (IonWorks Barracuda): 5HT3a; format: cell-based
T6 construct: host or cells: HEK293 or CHO
T6 sequence (P46098 whole entry, looked up): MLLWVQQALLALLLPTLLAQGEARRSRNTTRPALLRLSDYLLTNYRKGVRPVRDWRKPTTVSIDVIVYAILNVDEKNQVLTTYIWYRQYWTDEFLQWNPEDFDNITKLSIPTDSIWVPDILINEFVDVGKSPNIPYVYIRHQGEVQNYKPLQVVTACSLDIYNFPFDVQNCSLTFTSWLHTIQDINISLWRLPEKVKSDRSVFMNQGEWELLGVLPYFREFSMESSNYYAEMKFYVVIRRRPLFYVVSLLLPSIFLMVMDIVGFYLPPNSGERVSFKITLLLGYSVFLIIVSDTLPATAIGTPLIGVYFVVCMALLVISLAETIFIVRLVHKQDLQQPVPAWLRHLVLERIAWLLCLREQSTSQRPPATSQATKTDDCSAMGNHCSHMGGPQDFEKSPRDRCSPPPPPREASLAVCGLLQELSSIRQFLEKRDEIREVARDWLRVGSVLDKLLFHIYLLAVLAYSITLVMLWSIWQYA
Procedure, shortened: as §1

TRPV1 = target: T7, TRPV1 (Homo sapiens, UniProt Q8NER1); assay: Ion channel panel (IonWorks Barracuda): TRPV1; format: cell-based; conditions: 100% = no change, <100% = inhibition
T7 construct: host or cells: HEK293 or CHO
Procedure, shortened: as §1

Nav1.5 = Nav1.5 (Homo sapiens, UniProt Q14524); assay: in vitro; conditions: 100% = no change; for Activity of Nav1.5 with peptide, expressed as a percentage of the reference compound: peptide at 0.2 μM; for Activity of Nav1.5 with peptide (percentage of the reference compound): peptide at 20 μM
Procedure, shortened: as §1

hERG = hERG (Homo sapiens, UniProt Q12809); assay: in vitro; conditions: 100% = no change, <100% = inhibition
Procedure, shortened: as §1

Cav2.1 = target: T8, Cav2.1 (Homo sapiens, UniProt O00555); assay: cell-based; conditions: 100% = no change, <100% = inhibition
T8 construct: host or cells: HEK293 or CHO
Procedure, shortened: as §1

Kv2.1 = target: T9, Kv2.1 (Homo sapiens, UniProt Q14721); assay: cell-based; conditions: 100% = no change, <100% = inhibition
T9 construct: host or cells: HEK293 or CHO
Procedure, shortened: as §1

Cav2.2 = target: T10, Cav2.2 (Homo sapiens, UniProt Q00975); assay: cell-based; conditions: 100% = no change, <100% = inhibition
T10 construct: host or cells: HEK293 or CHO
Procedure, shortened: as §1

Kv1.1 = target: T11, Kv1.1 (Homo sapiens, UniProt Q09470); assay: cell-based; format: cell-based; conditions: 100% = no change, <100% = inhibition
T11 construct: host or cells: HEK293 or CHO
Procedure, shortened: as §1

Kv1.3 = target: T12, Kv1.3 (Homo sapiens, UniProt P22001); assay: cell-based; format: cell-based; conditions: 100% = no change, <100% = inhibition
T12 construct: host or cells: HEK293 or CHO
Procedure, shortened: as §1

Kv1.2 = target: T13, Kv1.2 (Homo sapiens, UniProt P16389); assay: cell-based; format: cell-based; conditions: 100% = no change, <100% = inhibition
T13 construct: host or cells: HEK293 or CHO
Procedure, shortened: as §1

NR2A = target: T14, NR2A (Homo sapiens, UniProt Q12879); assay: Ion channel panel (IonWorks Barracuda): NR2A; format: cell-based; conditions: 100% = no change, <100% = inhibition
T14 construct: host or cells: HEK293 or CHO
Procedure, shortened: as §1

Kir2.1 = target: T15, Kir2.1 (Homo sapiens, UniProt P63252); assay: Ion channel panel (IonWorks Barracuda): Kir2.1; format: cell-based; conditions: 100% = no change, <100% = inhibition
T15 construct: host or cells: HEK293 or CHO
Procedure, shortened: as §1

[1] = first of two Nav1.7 columns (probably TP1)
[2] = second of two Nav1.7 columns (probably TP2)
[3] = first of two Nav1.5 columns (probably TP1)
[4] = second of two Nav1.5 columns (probably TP2)

Nav1.5, sequence (Q14524 whole entry): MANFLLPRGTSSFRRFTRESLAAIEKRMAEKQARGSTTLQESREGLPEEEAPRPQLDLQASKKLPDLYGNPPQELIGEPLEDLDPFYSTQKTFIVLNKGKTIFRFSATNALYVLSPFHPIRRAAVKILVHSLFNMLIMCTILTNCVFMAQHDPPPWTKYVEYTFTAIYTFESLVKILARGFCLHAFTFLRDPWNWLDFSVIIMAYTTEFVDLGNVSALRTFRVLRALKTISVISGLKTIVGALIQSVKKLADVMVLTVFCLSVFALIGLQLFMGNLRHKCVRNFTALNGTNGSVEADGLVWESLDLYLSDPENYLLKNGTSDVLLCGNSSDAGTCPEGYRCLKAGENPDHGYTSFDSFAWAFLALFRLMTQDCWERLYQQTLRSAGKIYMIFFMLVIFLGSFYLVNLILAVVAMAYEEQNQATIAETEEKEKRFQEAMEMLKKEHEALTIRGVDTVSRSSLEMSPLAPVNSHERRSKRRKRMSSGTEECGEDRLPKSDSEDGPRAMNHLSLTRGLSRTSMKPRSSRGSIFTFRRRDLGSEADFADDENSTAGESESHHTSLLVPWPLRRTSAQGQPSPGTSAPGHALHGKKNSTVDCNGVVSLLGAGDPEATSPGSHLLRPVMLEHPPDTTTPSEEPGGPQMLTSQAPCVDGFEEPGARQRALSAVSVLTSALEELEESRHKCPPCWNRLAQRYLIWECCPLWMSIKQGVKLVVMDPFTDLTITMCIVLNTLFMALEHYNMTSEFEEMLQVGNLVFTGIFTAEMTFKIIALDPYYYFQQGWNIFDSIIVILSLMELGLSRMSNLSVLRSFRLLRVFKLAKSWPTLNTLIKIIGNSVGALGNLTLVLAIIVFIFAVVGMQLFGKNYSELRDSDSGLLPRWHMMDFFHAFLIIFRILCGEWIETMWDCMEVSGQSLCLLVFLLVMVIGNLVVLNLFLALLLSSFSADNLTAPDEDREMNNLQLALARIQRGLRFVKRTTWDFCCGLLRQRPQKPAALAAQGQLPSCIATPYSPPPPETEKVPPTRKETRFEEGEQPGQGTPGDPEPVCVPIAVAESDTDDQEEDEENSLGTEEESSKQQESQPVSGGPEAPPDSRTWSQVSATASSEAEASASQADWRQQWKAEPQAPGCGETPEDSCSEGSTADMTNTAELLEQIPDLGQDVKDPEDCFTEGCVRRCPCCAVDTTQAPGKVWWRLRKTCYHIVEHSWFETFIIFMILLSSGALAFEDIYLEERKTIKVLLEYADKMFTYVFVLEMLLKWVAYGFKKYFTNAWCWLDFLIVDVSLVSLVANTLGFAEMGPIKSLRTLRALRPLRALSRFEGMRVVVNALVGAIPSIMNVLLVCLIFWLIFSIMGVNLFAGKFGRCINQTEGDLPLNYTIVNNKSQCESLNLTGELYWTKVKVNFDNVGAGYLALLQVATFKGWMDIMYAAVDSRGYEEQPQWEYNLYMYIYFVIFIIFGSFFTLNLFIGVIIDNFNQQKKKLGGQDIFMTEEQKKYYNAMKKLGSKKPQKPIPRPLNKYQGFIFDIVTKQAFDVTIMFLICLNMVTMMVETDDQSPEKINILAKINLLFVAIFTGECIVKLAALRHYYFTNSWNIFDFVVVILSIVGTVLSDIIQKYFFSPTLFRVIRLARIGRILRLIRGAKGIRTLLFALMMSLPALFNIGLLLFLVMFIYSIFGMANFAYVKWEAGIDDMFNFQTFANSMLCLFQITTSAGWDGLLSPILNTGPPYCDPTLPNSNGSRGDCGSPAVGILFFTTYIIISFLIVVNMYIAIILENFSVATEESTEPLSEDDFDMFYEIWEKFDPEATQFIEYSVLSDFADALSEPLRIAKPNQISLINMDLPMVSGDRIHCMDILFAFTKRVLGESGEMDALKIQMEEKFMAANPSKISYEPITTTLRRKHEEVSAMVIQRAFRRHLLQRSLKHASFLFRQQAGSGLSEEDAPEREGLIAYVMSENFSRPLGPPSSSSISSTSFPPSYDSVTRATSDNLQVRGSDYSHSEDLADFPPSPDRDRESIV
T5 sequence (Q15858 whole entry): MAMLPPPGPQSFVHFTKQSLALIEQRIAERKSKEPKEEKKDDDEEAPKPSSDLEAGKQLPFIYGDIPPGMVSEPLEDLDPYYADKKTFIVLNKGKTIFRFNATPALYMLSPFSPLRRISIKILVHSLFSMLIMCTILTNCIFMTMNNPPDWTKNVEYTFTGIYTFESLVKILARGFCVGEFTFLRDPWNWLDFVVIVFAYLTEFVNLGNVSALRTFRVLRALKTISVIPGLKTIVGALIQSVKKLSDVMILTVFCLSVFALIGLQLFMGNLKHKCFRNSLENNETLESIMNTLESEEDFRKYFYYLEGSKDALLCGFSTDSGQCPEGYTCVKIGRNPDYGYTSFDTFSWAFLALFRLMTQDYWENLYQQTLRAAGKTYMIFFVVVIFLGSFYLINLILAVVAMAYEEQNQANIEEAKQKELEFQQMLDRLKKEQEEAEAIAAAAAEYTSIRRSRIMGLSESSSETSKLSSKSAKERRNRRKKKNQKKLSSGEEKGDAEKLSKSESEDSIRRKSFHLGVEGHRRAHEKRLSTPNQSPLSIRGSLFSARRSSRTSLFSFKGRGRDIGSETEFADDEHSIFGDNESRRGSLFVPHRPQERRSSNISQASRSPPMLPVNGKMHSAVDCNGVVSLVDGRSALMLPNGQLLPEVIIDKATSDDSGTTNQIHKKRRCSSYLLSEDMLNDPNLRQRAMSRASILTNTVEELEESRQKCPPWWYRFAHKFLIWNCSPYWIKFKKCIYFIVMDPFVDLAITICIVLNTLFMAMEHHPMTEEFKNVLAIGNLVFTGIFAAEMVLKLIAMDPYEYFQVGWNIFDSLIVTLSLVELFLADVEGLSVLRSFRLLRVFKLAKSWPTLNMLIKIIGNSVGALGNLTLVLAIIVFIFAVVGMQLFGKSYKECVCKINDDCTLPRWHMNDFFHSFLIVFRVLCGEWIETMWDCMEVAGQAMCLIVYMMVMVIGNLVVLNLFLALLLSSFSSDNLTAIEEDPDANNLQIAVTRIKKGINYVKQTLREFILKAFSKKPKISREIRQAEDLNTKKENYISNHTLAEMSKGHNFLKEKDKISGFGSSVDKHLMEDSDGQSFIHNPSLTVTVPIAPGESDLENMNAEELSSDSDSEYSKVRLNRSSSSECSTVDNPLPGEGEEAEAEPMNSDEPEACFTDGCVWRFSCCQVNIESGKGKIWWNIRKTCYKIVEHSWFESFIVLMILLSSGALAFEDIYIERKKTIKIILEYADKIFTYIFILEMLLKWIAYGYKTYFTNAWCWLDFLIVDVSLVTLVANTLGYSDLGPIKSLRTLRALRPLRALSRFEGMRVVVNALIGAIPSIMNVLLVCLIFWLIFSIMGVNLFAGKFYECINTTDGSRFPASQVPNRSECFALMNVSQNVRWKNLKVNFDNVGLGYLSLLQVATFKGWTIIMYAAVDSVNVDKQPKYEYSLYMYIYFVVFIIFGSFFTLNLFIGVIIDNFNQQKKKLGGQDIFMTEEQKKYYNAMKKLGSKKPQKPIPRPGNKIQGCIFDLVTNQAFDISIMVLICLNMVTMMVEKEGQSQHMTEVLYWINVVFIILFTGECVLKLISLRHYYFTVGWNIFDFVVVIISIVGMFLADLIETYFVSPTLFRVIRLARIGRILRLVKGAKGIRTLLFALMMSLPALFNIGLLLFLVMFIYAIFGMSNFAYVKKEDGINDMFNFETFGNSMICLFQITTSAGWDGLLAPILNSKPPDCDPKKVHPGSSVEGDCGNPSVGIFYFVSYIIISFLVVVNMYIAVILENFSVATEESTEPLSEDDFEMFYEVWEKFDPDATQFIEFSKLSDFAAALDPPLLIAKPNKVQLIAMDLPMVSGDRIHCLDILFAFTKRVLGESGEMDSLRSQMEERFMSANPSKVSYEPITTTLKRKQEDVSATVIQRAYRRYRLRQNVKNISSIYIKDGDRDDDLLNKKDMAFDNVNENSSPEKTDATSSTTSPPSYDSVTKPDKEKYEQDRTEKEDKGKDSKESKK
T4 sequence (P43681 29-627): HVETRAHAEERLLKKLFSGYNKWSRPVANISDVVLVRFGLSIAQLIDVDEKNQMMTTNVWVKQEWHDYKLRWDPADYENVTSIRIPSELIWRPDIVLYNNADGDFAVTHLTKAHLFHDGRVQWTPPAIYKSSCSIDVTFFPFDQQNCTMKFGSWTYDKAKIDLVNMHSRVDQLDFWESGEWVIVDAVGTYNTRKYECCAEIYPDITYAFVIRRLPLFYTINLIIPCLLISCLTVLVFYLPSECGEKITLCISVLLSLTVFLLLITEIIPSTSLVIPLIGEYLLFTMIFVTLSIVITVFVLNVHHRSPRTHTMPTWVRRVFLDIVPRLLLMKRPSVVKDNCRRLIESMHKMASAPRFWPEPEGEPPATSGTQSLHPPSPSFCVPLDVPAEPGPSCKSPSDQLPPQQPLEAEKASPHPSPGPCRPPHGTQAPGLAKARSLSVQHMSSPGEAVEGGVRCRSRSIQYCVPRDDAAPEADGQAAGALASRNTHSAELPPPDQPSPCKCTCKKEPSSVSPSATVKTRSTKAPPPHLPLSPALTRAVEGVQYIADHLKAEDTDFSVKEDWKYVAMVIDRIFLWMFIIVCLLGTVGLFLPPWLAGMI
T4 sequence (P17787 26-502): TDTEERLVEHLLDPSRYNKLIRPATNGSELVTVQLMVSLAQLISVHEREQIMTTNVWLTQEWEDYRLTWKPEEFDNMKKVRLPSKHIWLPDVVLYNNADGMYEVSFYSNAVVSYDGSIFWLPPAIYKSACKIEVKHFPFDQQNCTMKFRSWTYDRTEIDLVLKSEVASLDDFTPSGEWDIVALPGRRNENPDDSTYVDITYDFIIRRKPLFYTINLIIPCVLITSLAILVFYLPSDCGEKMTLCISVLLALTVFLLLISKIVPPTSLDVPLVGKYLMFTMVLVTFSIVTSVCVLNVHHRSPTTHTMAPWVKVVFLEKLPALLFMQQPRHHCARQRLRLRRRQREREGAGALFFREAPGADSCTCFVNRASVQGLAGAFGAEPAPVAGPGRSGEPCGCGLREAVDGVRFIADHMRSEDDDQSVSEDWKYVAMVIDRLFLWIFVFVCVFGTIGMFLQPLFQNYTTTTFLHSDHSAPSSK

29 (GSVFINVKCRGSPECLPKCKEAIGKSAGKCMNGKCKCYP) [compound 29]
Activity of GABA with peptide, expressed as a percentage of the reference compound (GABA; peptide at 0.2 μM): 123% | Activity of GABA with peptide (percentage of the reference compound) (GABA; peptide at 20 μM): 104% | Activity of TRPA1 with peptide, expressed as a percentage of the reference compound (TRPA1; peptide at 0.2 μM): 89% | Activity of TRPA1 with peptide (percentage of the reference compound) (TRPA1; peptide at 20 μM): 109% | Activity of NR2B with peptide, expressed as a percentage of the reference compound (NR2B; peptide at 0.2 μM): 101% | Activity of NR2B with peptide (percentage of the reference compound) (NR2B; peptide at 20 μM): 82% | Activity of a3b4 with peptide, expressed as a percentage of the reference compound (α3β4; peptide at 0.2 μM): 108% | Activity of a3b4 with peptide (percentage of the reference compound) (α3β4; peptide at 20 μM): 98% | Activity of a4b2 with peptide, expressed as a percentage of the reference compound (α4β2; peptide at 0.2 μM): 108% | Activity of a4b2 with peptide (percentage of the reference compound) (α4β2; peptide at 20 μM): 101% | Activity of Nav1.7 with peptide, expressed as a percentage of the reference compound (Nav1.7; [1]): 97% | Activity of Nav1.7 with peptide, expressed as a percentage of the reference compound (Nav1.7; [2]): 111% | Activity of Nav1.7 with peptide (percentage of the reference compound) (Nav1.7; [1]): 67% | Activity of Nav1.7 with peptide (percentage of the reference compound) (Nav1.7; [2]): 62% | Activity of 5HT3a with peptide (percentage of the reference compound) (5HT3a): 91% | Activity of 5HT3a with peptide, expressed as a percentage of the reference compound (5HT3a): 122% | Activity of TRPV1 with peptide, expressed as a percentage of the reference compound (TRPV1; peptide at 0.2 μM): 109% | Activity of TRPV1 with peptide (percentage of the reference compound) (TRPV1; peptide at 20 μM): 86% | Activity of Nav1.5 with peptide, expressed as a percentage of the reference compound (Nav1.5; [3]): 110% | Activity of Nav1.5 with peptide, expressed as a percentage of the reference compound (Nav1.5; [4]): 114% | Activity of Nav1.5 with peptide (percentage of the reference compound) (Nav1.5; [3]): 103% | Activity of Nav1.5 with peptide (percentage of the reference compound) (Nav1.5; [4]): 99% | Activity of hERG with peptide, expressed as a percentage of the reference compound (hERG; peptide at 0.2 μM): 95% | Activity of hERG with peptide (percentage of the reference compound) (hERG; peptide at 20 μM): 78% | Activity of Cav2.1 with peptide, expressed as a percentage of the reference compound (Cav2.1; peptide at 0.2 μM): 100% | Activity of Cav2.1 with peptide (percentage of the reference compound) (Cav2.1; peptide at 20 μM): 111% | Activity of Kv2.1 with peptide, expressed as a percentage of the reference compound (Kv2.1; peptide at 0.2 μM): 91% | Activity of Kv2.1 with peptide (percentage of the reference compound) (Kv2.1; peptide at 20 μM): 121% | Activity of Cav2.2 with peptide, expressed as a percentage of the reference compound (Cav2.2; peptide at 0.2 μM): 116% | Activity of Cav2.2 with peptide (percentage of the reference compound) (Cav2.2; peptide at 20 μM): 100% | Activity of Kv1.1 with peptide, expressed as a percentage of the reference compound (Kv1.1; peptide at 0.2 μM): 97% | Activity of Kv1.1 with peptide (percentage of the reference compound) (Kv1.1; peptide at 20 μM): 64% | Activity of Kv1.3 with peptide, expressed as a percentage of the reference compound (Kv1.3; peptide at 0.2 μM): 21% | Activity of Kv1.3 with peptide (percentage of the reference compound) (Kv1.3; peptide at 20 μM): 0% | Activity of Kv1.2 with peptide, expressed as a percentage of the reference compound (Kv1.2; peptide at 0.2 μM): 77% | Activity of Kv1.2 with peptide (percentage of the reference compound) (Kv1.2; peptide at 20 μM): 42% | Activity of NR2A with peptide, expressed as a percentage of the reference compound (NR2A; peptide at 0.2 μM): 93% | Activity of NR2A with peptide (percentage of the reference compound) (NR2A; peptide at 20 μM): 87% | Activity of Kir2.1 with peptide, expressed as a percentage of the reference compound (Kir2.1; peptide at 0.2 μM): 103% | Activity of Kir2.1 with peptide (percentage of the reference compound) (Kir2.1; peptide at 20 μM): 97%
